Consider two molecules from patent US10556936B2, “Immunogenic proteins and fragments thereof from allergenic mites” (ALK-ABELLÓ A/S, priority 2016, dated 2020).

What all share (assay type): cell-based, human
The subject of data set [1] is basophils in whole blood from HDM allergic donors. The data set can be described thus: Basophil Activation Test (BAT). To be noted: blood from HDM allergic individuals (n=14). As for the experimental part: Basophil Activation Test (BAT) was used as a predictive in vitro assay for indication of safety/immediate hypersensitivity reactions. The BAT assay is a widely used diagnostic test that is also used for evaluation of allergenicity of allergen derived components. In short: whole blood from HDM allergic donors was stimulated for 1 h with the proteins, and the increased expression of activation markers on the surface of basophils were measured by flow cytometry. The BAT test was carried out using different concentrations of the proteins and the allergens Der p 2 and Der p 1 was used as controls and tested in the same concentration rates.
(§1) This example relates to the further testing of immunogenicity of the proteins identified in Example 1. Their ability to react with IgE antibodies in HDM allergic individuals, to stimulate in vitro T cell proliferation of HDM allergic individuals and non-allergics, and to stimulate ex vivo cytokine production of HDM allergic individuals and non-allergics. The following tests were used: • Basophil Activation Test (BAT) was used as a predictive in vitro assay for indication of safety/immediate hypersensitivity reactions. BAT test was carried out using blood from HDM allergic individuals (n=14), and by use of different concentrations of test proteins or the major house dust mite allergens (Der p 1, Der f 1, Der p 2 or Der f 2, e.g. a concentration of 1, 10, 100 or 1000 ng/ml. • In vitro T cell reactivity determined in T cell lines obtained from HDM allergic individuals (n=30) and non-allergics (n=8): Determined by establishment of HDM specific T-cell lines according to standard methods. In short, PMBCs from HDM allergic donors were cultured for 3 weeks in the presence of house dust mite allergen extract. The responses to proteins at a concentration of 0.5 ug/ml or 2 ug/ml of the test protein or the major house dust mite allergens (Der p 1, Der f 1, Der p 2 or Der f 2) were assessed by proliferation in a standard 72 h T cell proliferation assay, as described in Henmar H et al., Clin Exp Immunol 2008; 153(3):316-23. […]. • Ex vivo stimulation of PBMC cells obtained from mite allergic patients (n=16) and non-allergics (n=6): Determined by measuring the production of the cytokines; IFN-gamma, IL-9, IL-10, IL-17 and IL-31 following stimulation with test protein in concentration up to 10 ug/ml. Freshly isolated PBMC 5×10^6/ml were cultured with a test protein for 5 days and cell supernatant were harvested and stored at −80° C. Cytokines of the supernatants were measured using ProcartaPlex Multiplex Immunoassays with MAGPIX Multiplex Reader according manufactory protocol.

The subject of data set [2] is T cell lines obtained from HDM allergic individuals and non-allergics. Briefly: In vitro T cell proliferation test in T cell lines (Example 3). The conditions noted are these: 0.5 or 2 ug/ml, 72 h; for % responders of in-vitro T cell proliferation test, Allergic: T cell lines from HDM allergic individuals (n=30); for % responders of in-vitro T cell proliferation test, Non-allergics: T cell lines from non-allergics (n=8).
Excerpt: as §1

In data set [3] the test system is PBMC cells obtained from mite allergic patients and non-allergics. The data set can be described thus: Ex vivo stimulation of PBMC: cytokine production (IFN-gamma, IL-9, IL-10, IL-17, IL-31).
Excerpt: as §1

Marks after values point to notes of the source that are not given here.

B1: A010: house dust mite protein; SEQ ID NO: 41 (Der p), 42 (Der f), 308 (Blo t) (protein)
chain: DSLKCSSIRNEDRIDCNPDPPISKNVCEQRGCCWKTAGNDLKNLSSKVLPNLNVPYCYYGENYIGYKIEKHSKNLIQLKRNRSSGFARDIENINIEIHELNDKVIRLKFIDANKKRYEVPIPKLNLPSTTSSSSSNSRLYSVELDGSHLIVRRRETNQSIFDINLAYMVYSDQLIHVTSRLPSKYIYGLGEHRAPFRKNTNWKRYTQWTRDQYPVTDKALYGNHPFYLTVEDESPKKSASGVFLFNSNAMDIITQPSPAITFRTIGGILDFFVFFGPKPEDVISQYQNLIGLPAMPPFWSLGYQQCRYGYNNFTNLNTTYTRNRAVGIPMDVQWTDIDAFNSNNDFTYDHKRFKELPDFINNVLHPNGQKFIPMFDCGISSGEPAGSYKPFDSGVELDVFVKNSSNKIFRGKVWNGKSTVWPDFSHPNATEYWMDMFAEYHKTIAFDGAWLDMNEPSNFYNGEEHGCPESEIENPQYVPGMTDDSLTLRHKTLCMTARHYNDQLHYNLHNLYSLSMAMATNAALTKLNKRPFIISRATAPGHGHWAYHWNGDILSDWSSMRWTIPSILNFNMFGIPMVGADICGFGGNTAEELCIRWYQLGAFYSFARNHNDIHSIDQDPAALGESVIRAARSSLQYRYRFLAHLYTLFYHVHKNGGTVLRPMFFEFPHDEHTYEIETQFMWGDSVLIAPILYPNQTQHKIYLPKGTWYNRKVSFESQGQYITMNDSYDDIDYVFVRGGSIIPTQEPHDNTELMKTKDFLLIVALDNQTSYAKGSLYWDSGDSLNPDKTGHYNFYNFDAVNNTLTIQSQWLGYQTTQNINFINILGVPKLPTSFKLNGHVSDPRIIRFNYDEQTNILTVETKLPIYNQDSSSHDRIHYQFEWIME
Regarding B1, in data set [1] (1 ng/ml), the “# of individuals of 14 with positive BAT test” value came to 0. For the same molecule, the “# of individuals of 14 with positive BAT test” value in data set [1] (10 ng/ml) was 0. The “# of individuals of 14 with positive BAT test” value in data set [1] (100 ng/ml) amounted to 0. For the same molecule, the “# of individuals of 14 with positive BAT test” value in data set [1] (1000 ng/ml) stood at 1. In addition, in data set [2], the “% responders of in-vitro T cell proliferation test, Allergic” value was 100* % and the “% responders of in-vitro T cell proliferation test, Non-allergics” value was found to be 14%. In data set [3], the “% HDM allergic individuals with cytokine production in ex-vivo T cell assay IL-5” value is reported as 31%, the “% HDM allergic individuals with cytokine production in ex-vivo T cell assay IL-9” value is 13%, the “% HDM allergic individuals with cytokine production in ex-vivo T cell assay IL-10” value turned out to be 38% and the “% HDM allergic individuals with cytokine production in ex-vivo T cell assay IL-13” value was determined as 44%. Besides, in data set [3], the “% HDM allergic individuals with cytokine production in ex-vivo T cell assay IL-17” value is listed as 13%, the “% HDM allergic individuals with cytokine production in ex-vivo T cell assay IL-31” value was determined as 6%, the “% HDM allergic individuals with cytokine production in ex-vivo T cell assay INF-g” value amounted to 0% and the “% non-allergic individuals with cytokine production in ex-vivo T cell assay IL-5” value turned out to be 0%. Further, in data set [3], the “% non-allergic individuals with cytokine production in ex-vivo T cell assay IL-9” value is given as 0%, the “% non-allergic individuals with cytokine production in ex-vivo T cell assay IL-10” value is reported as 0%, the “% non-allergic individuals with cytokine production in ex-vivo T cell assay IL-13” value was 0% and the “% non-allergic individuals with cytokine production in ex-vivo T cell assay IL-17” value was determined as 0%. Further, in data set [3], the “% non-allergic individuals with cytokine production in ex-vivo T cell assay IL-31” value is listed as 0% and the “% non-allergic individuals with cytokine production in ex-vivo T cell assay INF-g” value was found to be 0%.

B2: A009: house dust mite protein; SEQ ID NO: 43 (Der f), 44 (Der p), 307 (Blo t) (protein)
chain: VVIKVENLPEQCDYTQCPKWSKDDINVHLVAHTHDDVGWLKTVEQYYYGLKNDIQRAGVQYILDTMIEELIRNKDRRFIYVEIAFFWKWWQEQNEEQRMIVKELVRTGQLEFINGGWSMPDEAATHYNSLIDQSTWGLRQLNDTFGRCGHPKVTWQIDPFGHSKEMANLYAQMGYDALFFARQDYQDRENRMSNRTLEHVWQGSDDLGEIGDIFTGMMFSGYGPIEFNWDITNGPEDAVVDNPESEEYNVPDKIRRFVEKAKYFGQFYATNHFMFPMGTDFQYTDAHTWFKNLDKLINAVNKAGKGVRAFYSTPSCYAHALYEQNRTWTTKTDDFFPYASDEHAYWTGYFTSRPAIKRMERIGNNLLQACKQLDVLADNNGRFEMNLTKMREAMGVMQHHDAVTGTEKQHVAFNYAKMLDSAMLQCRHIINESYKKLLPKSSTSEHEFCPYLNISSCPTTEMGESRIIYLYNPLGHRLINHTVRLPIKNGYYYRIQDQNNQSVPSVLVPIPEFVQKIPGRKSVATKELVFRVPVIEPLGITTMYMYVDKNEQPNSAIEIKGENPDDNDDKSKWLVLTKNLIVEFYSNGTISRISIDKLHQSISISNEFRLYHGAGGTGRHSGAYIFRPNEQKTFPVTNKIKSTFFIDRKYHIVQEVHQQFDSSFVGQIIRMDKYNDNVEFDFVVGPIPVNDQIGKEIIASYKTDLENDETFYTDANGRQMLRRRWNYRPSWKYNVQEPISGNYYPVNSRIAIRDEKQSLQMTIMTDRSQGGSLSPEQINGSIDIMIHRRLLHDDYFGVGEALNEPGVDGHGLVIRGKHLLLLNSIKQSASEHRPLAQQMFMEPIISFTSIESNKQAEKQSNQYIGLNNDLPSNVHLLTLEQWHSKRYLLRLEHFYQSNEDTELSKPVKLSLRHLFKSFEIIAVEELTLGANQPISSLKNRLHYRYNRPLEQRQQQQSSLLLDDPKIEGENFDIHLSPMQIRTFLIDIKRN
Consider B2, for which, in data set [1] (1 ng/ml), the “# of individuals of 14 with positive BAT test” value is reported as 0. Also, in data set [1] (10 ng/ml), the “# of individuals of 14 with positive BAT test” value came out at 0. Besides, the “# of individuals of 14 with positive BAT test” value in data set [1] (100 ng/ml) worked out at 0. Moreover, in data set [1] (1000 ng/ml), the “# of individuals of 14 with positive BAT test” value is on record as 3. In addition, in data set [2], the “% responders of in-vitro T cell proliferation test, Allergic” value was determined as 36% and the “% responders of in-vitro T cell proliferation test, Non-allergics” value came out at 63%. Further, in data set [3], the “% HDM allergic individuals with cytokine production in ex-vivo T cell assay IL-5” value stood at 0%, the “% HDM allergic individuals with cytokine production in ex-vivo T cell assay IL-9” value stood at 0%, the “% HDM allergic individuals with cytokine production in ex-vivo T cell assay IL-10” value amounted to 94% and the “% HDM allergic individuals with cytokine production in ex-vivo T cell assay IL-13” value is 6%. In data set [3], the “% HDM allergic individuals with cytokine production in ex-vivo T cell assay IL-17” value is given as 19%, the “% HDM allergic individuals with cytokine production in ex-vivo T cell assay IL-31” value is on record as 0%, the “% HDM allergic individuals with cytokine production in ex-vivo T cell assay INF-g” value is listed as 19% and the “% non-allergic individuals with cytokine production in ex-vivo T cell assay IL-5” value is on record as 0%. Also, in data set [3], the “% non-allergic individuals with cytokine production in ex-vivo T cell assay IL-9” value is on record as 0%, the “% non-allergic individuals with cytokine production in ex-vivo T cell assay IL-10” value worked out at 100%, the “% non-allergic individuals with cytokine production in ex-vivo T cell assay IL-13” value is recorded as 0% and the “% non-allergic individuals with cytokine production in ex-vivo T cell assay IL-17” value amounted to 33%. In data set [3], the “% non-allergic individuals with cytokine production in ex-vivo T cell assay IL-31” value is 0% and the “% non-allergic individuals with cytokine production in ex-vivo T cell assay INF-g” value was found to be 50%.
